Data published in EP3349768A1.

Molecular target: T1, Cathepsin G (CTSG) from mouse bone marrow cell lysates (mouse) (UniProt P28293)
T1 sequence (looked up): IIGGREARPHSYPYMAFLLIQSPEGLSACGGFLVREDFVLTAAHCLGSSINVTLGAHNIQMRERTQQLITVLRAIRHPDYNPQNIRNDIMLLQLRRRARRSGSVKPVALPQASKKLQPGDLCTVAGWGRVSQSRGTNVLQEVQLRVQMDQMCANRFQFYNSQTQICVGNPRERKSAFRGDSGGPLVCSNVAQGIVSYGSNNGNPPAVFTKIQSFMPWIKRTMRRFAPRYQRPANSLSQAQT
Test: cell-based or functional assay

- decrease in CTSG enzymatic activity (cleavage of a specific substrate, release of pNA): 50%
B1: LKAb antibody (anti-Cathepsin G scFv, purified as scFv-Fc fusion protein) (Fc fusion, part only; not given: Fc tag, part only)
scFv, part: MAQVQLVQSGAEVKKPGASVKVSCKASGYTFTSYYMHWVRQAPGQGLEWMGGIIPIFGTGNYAQKFQGRVTITADESTSTAYMELSSLRSEDTAVYYCAREEEQQFSLDYWGQGTLVTVSSGGGGGLSNFMLTQPHSVSESPGKTVTISCTRSSGSIASNSVHWYQQRPGSAPTTVISENNQRPSGVPDRFSGSIDSSSNSASLTISGLKTEDEADYYCQSYDSNFHWVFGGGTQLTVLG
